Results as given in patent US7183376.

Biological target: soluble CD28-Ig Fc fusion protein (extracellular domain of human CD28 and Fc portion of human IgG1; R&D Systems) (human), P10747
Test: competitive FACS on transfected 293 cells; competitor sCTLA-4-Ig; score 0/1/2 = CD28/CTLA-4 binding ratio like / greater / significantly greater than WT hB7-1

Binder	Binding Score
Round 2 CD28A4-9 (ligand, not fully specified; X: residue not identified in the source; ends and bridges not checked) ITPKSVTKRVKETVMLSCDYNTSTEKLTSLRIYWQKDSKMVLAILPGKVQVWPEYKNRTITDMNDNPRIVILALRLSDSGTYTCVIQKPVLKGAYKLEHLTSVRLMIRADFPVPTINDLGNPSPNIRRLICSTSGGFPRPHLYWLENGEELNATNTTVSQDPETKLYMISSELDFNVTNNHSIVCLIKYGELSVSQIFPWSKPKQEPPIDQLPFWVIIPVSGALVLTAVVLYCPACRHVARWKRTRRNEETVGTERLSPIYLGSAQSRAEVPSLSX	1
Round 2 CD28A12-5 (ligand, not fully specified; X: residue not identified in the source; ends and bridges not checked; also: glycosylated membrane protein, sites not given here) ITPKSVTKRVKETVMLSCDYNTSTEELTSLRIYWRKDSKMXLAILPGKVQVWPEYKNRTITDMNDNLRIVILALRLSDSGTYTCVIQKPDLKGAYKLEHLTSVRLMIRADFPVPTINDLGNPSPNIRRLICSTSGGFPRPHLYWLENGEELNATNTTVSQDPGTELYMISSELDFNVTNNHSIVCLIKYGELLVSQIFPWSKPKQEPPIDQLPFWVIIPVSGALVLTAVVLYCLACRHVARWKRTRRNEETVGTERLSPIYLGSAQSSG	1
